From patent US20120009181A1, “Folate Receptor 1 Antibodies and Immunoconjugates and Uses Thereof” (published 2012) come the findings set out here.

Assay [1] concerns the target human folate receptor 1 (FOLR1) (human). Description: column head 'Apparent affinity (nM)'; method not restated (analyzed as described above: flow cytometry on FOLR1-expressing cells).
For assay [2] the target is unchanged. Description: cell-based or functional assay.
Assay [3] shares this target. Description: cell-based or functional assay. The source holds these as a separate data set.
Assay [4] has the same target. Description: cell-based or functional assay. This is another data set of the same source.

Chain of human folate receptor 1 (FOLR1) (human) (chain, as listed by the source limits assumed): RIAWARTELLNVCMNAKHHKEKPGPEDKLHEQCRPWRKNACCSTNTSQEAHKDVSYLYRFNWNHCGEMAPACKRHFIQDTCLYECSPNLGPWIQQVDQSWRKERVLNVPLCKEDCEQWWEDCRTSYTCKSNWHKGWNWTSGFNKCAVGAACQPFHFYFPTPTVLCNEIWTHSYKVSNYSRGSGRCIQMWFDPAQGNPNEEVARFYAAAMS

B1: huMov19 (antibody, V domains shown)
VH: QVQLVQSGAEVVKPGASVKISCKASGYTFTGYFMNWVKQSPGQSLEWIGRIHPYDGDTFYNQKFQGKATLTVDKSSNTAHMELLSLTSEDFAVYYCTRYDGSRAMDYWGQGTTVTVSS
VL: DIVLTQSPLSLAVSLGQPAIISCKASQSVSFAGTSLMHWYHQKPGQQPRLLIYRASNLEAGVPDRFSGSGSKTDFTLNISPVEAEDAATYYCQQSREYPYTFGGGTKLEIKR
Take B1: in assay [1], the Kd was found to be 0.06 nM.

B2: huMov19-SPP-DM1 (antibody, V domains shown)
VH: QVQLVQSGAEVVKPGASVKISCKASGYTFTGYFMNWVKQSPGQSLEWIGRIHPYDGDTFYNQKFQGKATLTVDKSSNTAHMELLSLTSEDFAVYYCTRYDGSRAMDYWGQGTTVTVSS
VL: DIVLTQSPLSLAVSLGQPAIISCKASQSVSFAGTSLMHWYHQKPGQQPRLLIYRASNLEAGVPDRFSGSGSKTDFTLTISPVEAEDAATYYCQQSREYPYTFGGGTKLEIKR
modifications: maytansinoid DM1 linked to the antibody through the SPP linker, 3.5-4 DM1 per antibody; attachment residues not stated
As for B2, in assay [2], the “IC50, nM (n = 3), Ab-based; in vitro cytotoxicity on IGROV-1 cells” value was 0.1 nM; the “IC50, nM (n = 3), Ab-based; in vitro cytotoxicity on JEG-3 cells” value is 0.2 nM; the “IC50, nM (n = 3), Ab-based; in vitro cytotoxicity on KB cells” value worked out at 0.1 nM.

B3: huFR1-57 (antibody, V domains shown)
VH: EVQLVESGGGLVQPGGSRRLSCAASGFTFSSFGMHWVRQAPGKGLEWVAYISSGSSTISYADSVKGRFTISRDNSKKTLLLQMTSLRAEDTAMYYCAREAYGSSMEYWGQGTLVTVSS
VL: EIVLTQSPATLSVTPGDRVSLSCRASQNINNNLHWYQQKPGQSPRLLIKYVSQSVSGIPDRFSGSGSGTDFTLSISSVEPEDFGMYFCQQSNSWPHYTFGQGTKLEIKR
With B3, the Kd in assay [1] amounted to 0.14 nM.

B4: huFR1-57-SMCC-DM1 (antibody, V domains shown)
VH: EVQLVESGGGLVQPGGSRRLSCAASGFTFSSFGMHWVRQAPGKGLEWVAYISSGSSTISYADSVKGRFTISRDNSKKTLLLQMTSLRAEDTAMYYCAREAYGSSMEYWGQGTLVTVSS
VL: EIVLTQSPATLSVTPGDRVSLSCRASQNINNNLHWYQQKPGQSPRLLIKYVSQSVSGIPDRFSGSGSGTDFTLSISSVEPEDFGMYFCQQSNSWPHYTFGQGTKLEIKR
modifications: maytansinoid DM1 linked to the antibody through the SMCC linker; drug load and attachment residues not stated
For the molecule B4, the “huAb-smcc-DM1 activity on KB in vitro” value in assay [3] was determined as 0.1 nM.

B5: huFR1-21 (antibody, V domains shown)
VH: EVQLVESGGDVVKPGGSLKLSCAASGFTFSSYGMSWVRQTPGKGLECVATISSGGSYTYYSPGFQGRFTISRDKSKNTLYLQMSSLKAEDTAMYYCARDGEGGLYAMDYWGQGTSVTVSS
VL: DIQMTQSSSSLSVSVGGRVTITCKASDHINNWLAWYQQKPGKAPKLLISGATSLETGVPSRFSGSGSGKDYTLSISSLQPEDVATYYCQQYWSTPFTFGQGTKLEIKR
Consider B5, for which the “EC50 of ADCC activity on IGROV-1 cells” value in assay [4] was determined as 0.11 ng/mL.

B6: huFR1-48 (antibody, V domains shown)
VH: QVQLVQSGAEVAKPGASVKLSCKASGYTFTNYWMQWIKQRPGQGLEWIGAIYPGNGDSRYTQKFQGKATLTADKSSSTAYMQVSSLTSEDSAVYYCARRDGNYAAYWGQGTLVTVSA
VL: DIQMTQSPSSLSVSVGERVTITCRASENIYSNLAWYQQKPGKSPKLLVYAATNLADGVPSRFSGSESGTDYSLKINSLQPEDFGSYYCQHFWASPYTFGQGTKLEIKR
For B6, the Kd in assay [1] is 0.13 nM.

B7: huFR1-49-SMCC-DM1 (antibody, V domains shown)
VH: QVQLQQSGAVVAKPGASVKMSCKASGYTFTNYWMYWIKQRPGQGLELIGAIYPGNSDTTYNQKFQGKATLTAVTSANTVYMEVSSLTSEDSAVYYCTKRHDYGAMDYWGQGTSVTVSS
VL: DIQMTQSPSSLSVSVGERVTITCRASENIYTNLAWYQQKPGKSPKLLVYTASNLADGVPSRFSGSGSGTDYSLKINSLQPEDFGTYYCQHFWVSPYTFGQGTKLEIKR
modifications: maytansinoid DM1 linked to the antibody through the SMCC linker; drug load and attachment residues not stated
For B7, the “huAb-smcc-DM1 activity on KB in vitro” value in assay [3] stood at 0.1 nM.

B8: huFR1-49 (antibody, V domains shown)
VH: QVQLQQSGAVVAKPGASVKMSCKASGYTFTNYWMYWIKQRPGQGLELIGAIYPGNSDTTYNQKFQGKATLTAVTSANTVYMEVSSLTSEDSAVYYCTKRHDYGAMDYWGQGTSVTVSS
VL: DIQMTQSPSSLSVSVGERVTITCRASENIYTNLAWYQQKPGKSPKLLVYTASNLADGVPSRFSGSGSGTDYSLKINSLQPEDFGTYYCQHFWVSPYTFGQGTKLEIKR
For the molecule B8, the Kd in assay [1] turned out to be 0.08 nM.

B9: huFR1-48-SMCC-DM1 (antibody, V domains shown)
VH: QVQLVQSGAEVAKPGASVKLSCKASGYTFTNYWMQWIKQRPGQGLEWIGAIYPGNGDSRYTQKFQGKATLTADKSSSTAYMQVSSLTSEDSAVYYCARRDGNYAAYWGQGTLVTVSA
VL: DIQMTQSPSSLSVSVGERVTITCRASENIYSNLAWYQQKPGKSPKLLVYAATNLADGVPSRFSGSESGTDYSLKINSLQPEDFGSYYCQHFWASPYTFGQGTKLEIKR
modifications: maytansinoid DM1 linked to the antibody through the SMCC linker; drug load and attachment residues not stated
With B9, the “huAb-smcc-DM1 activity on KB in vitro” value in assay [3] came out at 0.05 nM.

B10: huFR1-65 (antibody, V domains shown)
VH: QVQLVQSGAEVAKPGASVKMSCKASGYTFTSYTMHWVKQRPGQGLAWIGYINPISGYTNYNQKFQGKATLTADKSSSTAYMQLNSLTSEDSAVYYCASGGAYGRKPMDYWGQGTSVTVSS
VL: EIVMTQSPATMSTSPGDRVSVTCKASQNVGPNVAWYQQKPGQSPRALIYSASYRYSGVPARFTGSGSGTDFTLTISNMQSEDLAEYFCQQYNSYPYTFGQGTKLEIKR
Regarding B10, the Kd in assay [1] came out at 0.15 nM.

B11: huFR1-65-SMCC-DM1 (antibody, V domains shown)
VH: QVQLVQSGAEVAKPGASVKMSCKASGYTFTSYTMHWVKQRPGQGLAWIGYINPISGYTNYNQKFQGKATLTADKSSSTAYMQLNSLTSEDSAVYYCASGGAYGRKPMDYWGQGTSVTVSS
VL: EIVMTQSPATMSTSPGDRVSVTCKASQNVGPNVAWYQQKPGQSPRALIYSASYRYSGVPARFTGSGSGTDFTLTISNMQSEDLAEYFCQQYNSYPYTFGQGTKLEIKR
modifications: maytansinoid DM1 linked to the antibody through the SMCC linker; drug load and attachment residues not stated
For the molecule B11, the “huAb-smcc-DM1 activity on KB in vitro” value in assay [3] worked out at 0.1 nM.
